Data reported in PMC5674072 (2017).

B1: 3x Flag Matrin 3 wild-type (human) [human] / Aly (AlyRef) of NSC-34 cells [mouse (endogenous in NSC-34)] (parent complex)
chain 1: MSKSFQQSSLSRDSQGHGRDLSAAGIGLLAAATQSLSMPASLGRMNQGTARLASLMNLGMSSSLNQQGAHSALSSASTSSHNLQSIFNIGSRGPLPLSSQHRGDADQASNILASFGLSARDLDELSRYPEDKITPENLPQILLQLKRRRTEEGPTLSYGRDGRSATREPPYRVPRDDWEEKRHFRRDSFDDRGPSLNPVLDYDHGSRSQESGYYDRMDYEDDRLRDGERCRDDSFFGETSHNYHKFDSEYERMGRGPGPLQERSLFEKKRGAPPSSNIEDFHGLLPKGYPHLCSICDLPVHSNKEWSQHINGASHSRRCQLLLEIYPEWNPDNDTGHTMGDPFMLQQSTNPAPGILGPPPPSFHLGGPAVGPRGNLGAGNGNLQGPRHMQKGRVETSRVVHIMDFQRGKNLRYQLLQLVEPFGVISNHLILNKINEAFIEMATTEDAQAAVDYYTTTPALVFGKPVRVHLSQKYKRIKKPEGKPDQKFDQKQELGRVIHLSNLPHSGYSDSAVLKLAEPYGKIKNYILMRMKSQAFIEMETREDAMAMVDHCLKKALWFQGRCVKVDLSEKYKKLVLRIPNRGIDLLKKDKSRKRSYSPDGKESPSDKKSKTDGSQKTESSTEGKEQEEKSGEDGEKDTKDDQTEQEPNMLLESEDELLVDEEEAAALLESGSSVGDETDLANLGDVASDGKKEPSDKAVKKDGSASAAAKKKLKKVDKIEELDQENEAALENGIKNEENTEPGAESSENADDPNKDTSENADGQSDENKDDYTIPDEYRIGPYQPNVPVGIDYVIPKTGFYCKLCSLFYTNEEVAKNTHCSSLPHYQKLKKFLNKLAEERRQKKET
chain 2: not shown

Variants of: B1
Experiment: co-immunoprecipitation (Aly IP) followed by western blot, quantified; NSC-34 stable cell lines; five replicates; WT vs 154 p = 0.2250; read off a plot

ratio to parent | Variant
~1.6 | chain 1 P154S

Variants of: B1
Experiment: co-immunoprecipitation (Aly IP) followed by western blot, quantified; NSC-34 stable cell lines; five replicates; WT vs 622 p = 0.9611; read off a plot

ratio to parent | Variant
~1.2 | chain 1 T622A

Variants of: B1
Experiment: co-immunoprecipitation (Aly IP) followed by western blot, quantified; NSC-34 stable cell lines; five replicates; WT vs 115: p = 0.9670; read off a plot

ratio to parent | Variant
~1.2 | chain 1 F115C

Variants of: B1
Experiment: co-immunoprecipitation (Aly IP) followed by western blot, quantified; NSC-34 stable cell lines; five replicates; WT vs 85: p = 0.6561; read off a plot

ratio to parent | Variant
~1.4 | chain 1 S85C
